Experimental data taken from article PMC9352680, “A comprehensive thermodynamic model for RNA binding by the Saccharomyces cerevisiae Pumilio protein PUF4”.

T1: PUF4 RNA-binding domain (Saccharomyces cerevisiae, UniProt P25339 537-888)
T1 sequence: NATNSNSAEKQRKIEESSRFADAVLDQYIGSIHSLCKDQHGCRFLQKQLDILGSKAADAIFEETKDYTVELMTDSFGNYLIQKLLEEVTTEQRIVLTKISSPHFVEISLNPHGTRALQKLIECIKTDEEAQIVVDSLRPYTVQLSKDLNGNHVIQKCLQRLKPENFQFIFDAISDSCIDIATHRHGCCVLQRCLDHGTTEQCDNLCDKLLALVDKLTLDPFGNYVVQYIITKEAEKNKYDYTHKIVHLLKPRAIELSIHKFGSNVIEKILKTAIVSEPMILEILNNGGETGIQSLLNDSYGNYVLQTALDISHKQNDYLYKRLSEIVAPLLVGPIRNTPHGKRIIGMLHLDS

B1: Ic_S1_P4E.1_K4.1_C4.1_H4.1_A4.1_[A6T]_[T7A]_F4.1_[A9C]_T4.1 (ssRNA)
RNA: UCUCUUUGUAUUAUCUCUCUU
B2: Ic_S1_P4E.1_K4.1_C4.1_H4.1_A4.1_[T7C]_F4.1_[T8G]_[A9C]_T4.1 (ssRNA)
RNA: UCUCUUUGUAUACGCUCUCUU
B3: Ic_S1_P4E.1_K4.1_C4.1_H4.1_A4.1_[A6T]_[T7A]_F4.1_[A9T]_T4.1 (ssRNA)
RNA: UCUCUUUGUAUUAUUUCUCUU
B4: Ic_S1_P4E.1_K4.1_C4.1_H4.1_A4.1_[A6T]_[T7C]_F4.1_[A9T]_T4.1 (ssRNA)
RNA: UCUCUUUGUAUUCUUUCUCUU
B5: Ic_S1_P4E.1_K4.1_C4.1_H4.1_A4.1_[A6T]_[T7A]_F4.1_[T8G]_[A9T]_T4.1 (ssRNA)
RNA: UCUCUUUGUAUUAGUUCUCUU
B6: Ic_S1_P4E.1_K4.1_C4.1_H4.1_A4.1_[A6T]_[T7A]_F4.1_[T8G]_[A9C]_T4.1 (ssRNA)
RNA: UCUCUUUGUAUUAGCUCUCUU
B7: Ic_S1_P4E.1_K4.1_C4.1_H4.1_A4.1_[T7C]_F4.1_[T8C]_[A9C]_T4.1 (ssRNA)
RNA: UCUCUUUGUAUACCCUCUCUU
B8: Ic_S1_P4E.1_K4.1_C4.1_H4.1_A4.1_[A6T]_[T7A]_F4.1_[T8A]_[A9T]_T4.1 (ssRNA)
RNA: UCUCUUUGUAUUAAUUCUCUU
B9: Ic_S1_P4E.1_K4.1_C4.1_H4.1_A4.1_[A6T]_F4.1_[T8C]_[A9C]_T4.1 (ssRNA)
RNA: UCUCUUUGUAUUUCCUCUCUU
B10: Ic_S1_P3E.1_K3.1_C3.1_H3.1_A3.1_[T5C]_F3.1_[A8G]_T3.1 (ssRNA)
RNA: UCUCUUUGUACAUGUCUCUU
B11: Ic_S1_P4E.1_K4.1_C4.1_H4.1_A4.1_[A6T]_F4.1_[T8G]_[A9G]_T4.1 (ssRNA)
RNA: UCUCUUUGUAUUUGGUCUCUU
B12: Ic_S1_P3E.1_K3.1_C3.1_H3.1_A3.1_[T5A]_F3.1_[A8G]_T3.1 (ssRNA)
RNA: UCUCUUUGUAAAUGUCUCUU
B13: Ic_S1_P4E.1_K4.1_C4.1_H4.1_A4.1_[A6T]_[T7A]_F4.1_[T8C]_[A9G]_T4.1 (ssRNA)
RNA: UCUCUUUGUAUUACGUCUCUU
B14: Ic_S1_P4E.1_K4.1_C4.1_H4.1_A4.1_[A6T]_F4.1_[T8A]_[A9T]_T4.1 (ssRNA)
RNA: UCUCUUUGUAUUUAUUCUCUU
B15: Ic_S1_P4E.1_K4.1_C4.1_H4.1_A4.1_[T7C]_F4.1_[T8G]_[A9G]_T4.1 (ssRNA)
RNA: UCUCUUUGUAUACGGUCUCUU
B16: Ib_S1_P3E.1_K3.1_C3.1_H3.1_A3.1_[T5C]_F3.1_[A8C]_T3.1 (ssRNA)
RNA: UCUCUUUGUACAUCUCUCUU
B17: Ic_S1_P4E.1_K4.1_C4.1_H4.1_A4.1_[A6T]_[T7A]_F4.1_[A9G]_T4.1 (ssRNA)
RNA: UCUCUUUGUAUUAUGUCUCUU
B18: Ic_S1_P4E.1_K4.1_C4.1_H4.1_A4.1_[T7C]_F4.1_[T8C]_[A9G]_T4.1 (ssRNA)
RNA: UCUCUUUGUAUACCGUCUCUU
B19: Ic_S1_P4E.1_K4.1_C4.1_H4.1_A4.1_[A6T]_F4.1_[T8G]_[A9C]_T4.1 (ssRNA)
RNA: UCUCUUUGUAUUUGCUCUCUU
B20: Ic_S1_P4E.1_K4.1_C4.1_H4.1_A4.1_[A6T]_F4.1_[T8A]_[A9G]_T4.1 (ssRNA)
RNA: UCUCUUUGUAUUUAGUCUCUU
B21: Ic_S1_P4E.1_K4.1_C4.1_H4.1_A4.1_[A6T]_[T7A]_F4.1_[T8A]_T4.1 (ssRNA)
RNA: UCUCUUUGUAUUAAAUCUCUU
B22: Ic_S1_P4E.1_K4.1_C4.1_H4.1_A4.1_[T7G]_F4.1_[T8C]_[A9G]_T4.1 (ssRNA)
RNA: UCUCUUUGUAUAGCGUCUCUU
B23: Ic_S1_P4E.1_K4.1_C4.1_H4.1_A4.1_[T7C]_F4.1_[T8A]_[A9G]_T4.1 (ssRNA)
RNA: UCUCUUUGUAUACAGUCUCUU
B24: Ic_S1_P4E.1_K4.1_C4.1_H4.1_A4.1_[A6T]_F4.1_[T8C]_[A9G]_T4.1 (ssRNA)
RNA: UCUCUUUGUAUUUCGUCUCUU
B25: Ic_S1_P4E.1_K4.1_C4.1_H4.1_A4.1_[T7G]_F4.1_[T8C]_[A9C]_T4.1 (ssRNA)
RNA: UCUCUUUGUAUAGCCUCUCUU
B26: Ic_S1_P4E.1_K4.1_C4.1_H4.1_A4.1_[A6T]_[T7A]_F4.1_[T8C]_[A9T]_T4.1 (ssRNA)
RNA: UCUCUUUGUAUUACUUCUCUU
B27: Ic_S1_P4E.1_K4.1_C4.1_H4.1_A4.1_[A6T]_F4.1_[T8A]_[A9C]_T4.1 (ssRNA)
RNA: UCUCUUUGUAUUUACUCUCUU
B28: Ic_S1_P4E.1_K4.1_C4.1_H4.1_A4.1_[A6T]_[T7A]_F4.1_[T8C]_[A9C]_T4.1 (ssRNA)
RNA: UCUCUUUGUAUUACCUCUCUU

target: T1, PUF4 RNA-binding domain; assay: Mg; RNA-MaP; 20 mM Na-HEPES pH 7.4, 30 mM KOAc, 0.75 mM MgCl2, 0.1% Tween-20, 5% glycerol, 0.1 mg/mL BSA, 2 mM DTT; 25 C; 0.0125-409.6 nM protein; settings: tags: N-His6-TEV cleaved; C-SNAP kept, Cy3B-labelled; label: tethered on chip by stalled RNA polymerase

Binder	Kd [nM]
B1	19.3
B2	367
B3	12.6
B4	27.1
B5	431
B6	530
B7	93.4
B8	86.5
B9	313
B10	21.8
B11	630
B12	97.5
B13	844
B14	31.8
B15	683
B16	15.9
B17	10.8
B18	542
B19	350
B20	25.3
B21	95.4
B22	283
B23	95.6
B24	462
B25	108
B26	49.6
B27	74.9
B28	511
